# Assay results: patent US20220049236A1
# B1: Fc-LPD N346, 362, 409Q (Fc fusion)
# chain: APPAAGQQQPPREPPAAPGAWRQQIQWENNGQVFSLLSLGSQYQPQRRRDPGAAVPGAAQASAQQPRTPILLIRDQRTAAARTRTAGSSGVTAGRPRPTARHWFQAGYSTSRAREAGASRAEQQTAPGEVPALSNLRPPSRVDGMVGD
# Assays:
# HSP70 [1] = biological target: HSP70 (UniProt P0DMV8); assay: ELISA, plate coated with HSP70
# HSP70 [2] = biological target: HSP70 (UniProt P0DMV8); assay: ELISA, plate coated with HSP70, bound protein detected with peroxidase-conjugated anti-human antibody
# Sequence of HSP70 (P0DMV8 whole entry): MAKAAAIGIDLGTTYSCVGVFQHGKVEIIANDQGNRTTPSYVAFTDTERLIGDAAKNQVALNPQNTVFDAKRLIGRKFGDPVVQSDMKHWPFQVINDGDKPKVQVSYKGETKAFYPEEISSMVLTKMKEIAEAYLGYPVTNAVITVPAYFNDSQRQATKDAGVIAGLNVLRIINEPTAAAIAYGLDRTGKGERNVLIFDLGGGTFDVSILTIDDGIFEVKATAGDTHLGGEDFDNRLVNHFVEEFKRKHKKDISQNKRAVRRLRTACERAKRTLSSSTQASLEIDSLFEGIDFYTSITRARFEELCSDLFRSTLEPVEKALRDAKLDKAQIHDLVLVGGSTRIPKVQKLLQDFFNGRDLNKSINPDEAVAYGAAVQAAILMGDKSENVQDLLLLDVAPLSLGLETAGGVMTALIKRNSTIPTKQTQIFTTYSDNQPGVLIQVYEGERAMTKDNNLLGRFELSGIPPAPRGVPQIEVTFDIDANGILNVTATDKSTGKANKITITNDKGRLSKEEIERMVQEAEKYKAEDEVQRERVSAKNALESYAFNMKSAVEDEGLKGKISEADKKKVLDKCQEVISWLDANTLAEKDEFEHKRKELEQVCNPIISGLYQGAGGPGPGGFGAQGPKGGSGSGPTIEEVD
binder,measurement,setting,value
B1,EC50,HSP70 [1],41 nM
same,EC50,HSP70 [2],57 nM
